The supplement of paper PMC6379048

What was measured:
Test in all cases: Kd (EC50 corrected by depletion factor)
CMTR1 = molecular target: T1, CMTR1 (UniProt Q8N1G2)
T1 sequence: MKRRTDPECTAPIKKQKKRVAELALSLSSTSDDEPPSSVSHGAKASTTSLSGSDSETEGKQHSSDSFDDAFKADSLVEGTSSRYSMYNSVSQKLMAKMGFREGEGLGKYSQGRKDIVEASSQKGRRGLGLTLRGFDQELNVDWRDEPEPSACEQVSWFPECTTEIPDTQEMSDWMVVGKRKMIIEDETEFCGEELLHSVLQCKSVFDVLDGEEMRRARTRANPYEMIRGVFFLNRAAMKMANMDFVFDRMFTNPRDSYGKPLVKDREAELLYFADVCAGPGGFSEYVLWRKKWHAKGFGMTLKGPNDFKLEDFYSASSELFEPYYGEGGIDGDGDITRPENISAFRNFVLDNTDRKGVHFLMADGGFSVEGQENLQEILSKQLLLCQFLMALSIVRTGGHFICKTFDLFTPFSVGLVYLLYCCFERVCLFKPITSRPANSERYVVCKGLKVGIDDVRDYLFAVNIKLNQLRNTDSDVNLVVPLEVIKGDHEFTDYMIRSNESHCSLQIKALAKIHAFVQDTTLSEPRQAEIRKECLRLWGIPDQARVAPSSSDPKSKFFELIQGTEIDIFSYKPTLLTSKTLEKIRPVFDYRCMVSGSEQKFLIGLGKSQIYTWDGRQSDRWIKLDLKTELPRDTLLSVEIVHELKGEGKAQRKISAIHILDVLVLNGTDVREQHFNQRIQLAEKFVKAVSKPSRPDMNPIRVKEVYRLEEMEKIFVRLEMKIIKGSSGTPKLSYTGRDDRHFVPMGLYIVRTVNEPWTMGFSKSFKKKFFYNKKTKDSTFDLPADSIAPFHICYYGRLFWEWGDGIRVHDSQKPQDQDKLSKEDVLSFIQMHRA
In short: (§1)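 Kd was calculated as EC50, taken from a four-parameter log-logistic fit, multiplied by a protein-dependent depletion factor. The assay used HEK293-FT lysate (2.5 mg protein/well) pre-incubated for 1 h at 4°C with free RNA oligos (0 nM to 30 μM), then incubated for 30 min at 4°C with the matching oligos bound through a 5′-amino-C6 linker to NHS-Sepharose beads. Bound proteins were measured by label-free LC-MS/MS and normalised to the control.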

CPSF1 = molecular target: T2, CPSF1 (UniProt Q10570)
T2 sequence: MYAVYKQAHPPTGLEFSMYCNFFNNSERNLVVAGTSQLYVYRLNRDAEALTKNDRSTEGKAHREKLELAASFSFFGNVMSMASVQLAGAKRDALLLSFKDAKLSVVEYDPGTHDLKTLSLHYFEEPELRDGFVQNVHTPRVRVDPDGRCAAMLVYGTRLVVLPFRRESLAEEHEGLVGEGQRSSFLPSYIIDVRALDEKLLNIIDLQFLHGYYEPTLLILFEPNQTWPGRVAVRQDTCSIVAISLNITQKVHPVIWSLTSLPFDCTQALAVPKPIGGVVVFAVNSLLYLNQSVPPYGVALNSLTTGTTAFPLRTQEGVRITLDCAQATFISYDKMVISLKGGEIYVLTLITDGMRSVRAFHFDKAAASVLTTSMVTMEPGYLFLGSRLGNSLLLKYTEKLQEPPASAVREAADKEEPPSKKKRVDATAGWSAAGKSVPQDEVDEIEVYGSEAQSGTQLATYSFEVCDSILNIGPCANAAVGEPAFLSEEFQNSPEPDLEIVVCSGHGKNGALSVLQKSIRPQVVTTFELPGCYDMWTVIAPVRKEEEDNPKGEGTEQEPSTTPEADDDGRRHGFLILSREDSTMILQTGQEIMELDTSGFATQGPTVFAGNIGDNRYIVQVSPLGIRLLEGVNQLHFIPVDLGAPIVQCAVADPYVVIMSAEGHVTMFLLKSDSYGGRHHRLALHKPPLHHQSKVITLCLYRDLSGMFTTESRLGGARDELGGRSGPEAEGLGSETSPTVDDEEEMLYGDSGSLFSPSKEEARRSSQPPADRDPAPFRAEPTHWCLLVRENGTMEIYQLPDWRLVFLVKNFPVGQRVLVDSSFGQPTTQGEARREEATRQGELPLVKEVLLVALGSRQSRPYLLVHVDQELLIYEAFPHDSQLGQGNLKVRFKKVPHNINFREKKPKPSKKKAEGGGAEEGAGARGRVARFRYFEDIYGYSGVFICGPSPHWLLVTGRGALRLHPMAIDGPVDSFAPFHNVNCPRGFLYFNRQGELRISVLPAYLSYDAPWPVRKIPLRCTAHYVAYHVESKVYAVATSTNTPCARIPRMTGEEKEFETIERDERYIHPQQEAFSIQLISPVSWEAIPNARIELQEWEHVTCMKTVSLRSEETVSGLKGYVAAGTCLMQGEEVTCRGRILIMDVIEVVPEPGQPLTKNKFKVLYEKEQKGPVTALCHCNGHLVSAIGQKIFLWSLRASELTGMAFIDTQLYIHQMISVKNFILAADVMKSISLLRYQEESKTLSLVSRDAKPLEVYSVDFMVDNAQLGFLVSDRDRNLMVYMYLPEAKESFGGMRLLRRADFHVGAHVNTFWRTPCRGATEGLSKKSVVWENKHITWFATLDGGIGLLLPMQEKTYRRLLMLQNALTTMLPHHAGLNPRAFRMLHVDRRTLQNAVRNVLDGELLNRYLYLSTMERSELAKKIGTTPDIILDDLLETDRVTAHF
In short: as §1

DAZAP1 = molecular target: T3, DAZAP1 (UniProt Q96EP5)
T3 sequence: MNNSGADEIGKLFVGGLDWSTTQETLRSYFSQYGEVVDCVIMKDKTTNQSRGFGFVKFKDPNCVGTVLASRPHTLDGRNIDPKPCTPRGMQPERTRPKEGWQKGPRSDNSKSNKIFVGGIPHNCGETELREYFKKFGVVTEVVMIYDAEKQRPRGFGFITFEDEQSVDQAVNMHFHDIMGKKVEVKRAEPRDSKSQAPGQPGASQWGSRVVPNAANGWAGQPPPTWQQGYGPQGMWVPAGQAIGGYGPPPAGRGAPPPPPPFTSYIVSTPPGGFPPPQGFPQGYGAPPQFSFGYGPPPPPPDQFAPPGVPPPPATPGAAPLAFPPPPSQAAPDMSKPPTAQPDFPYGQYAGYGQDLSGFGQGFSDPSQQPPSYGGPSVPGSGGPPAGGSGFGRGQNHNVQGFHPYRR
In short: as §1

ELAVL2 = ELAVL2 (UniProt Q12926)
Chain of ELAVL2 (Q12926 whole entry): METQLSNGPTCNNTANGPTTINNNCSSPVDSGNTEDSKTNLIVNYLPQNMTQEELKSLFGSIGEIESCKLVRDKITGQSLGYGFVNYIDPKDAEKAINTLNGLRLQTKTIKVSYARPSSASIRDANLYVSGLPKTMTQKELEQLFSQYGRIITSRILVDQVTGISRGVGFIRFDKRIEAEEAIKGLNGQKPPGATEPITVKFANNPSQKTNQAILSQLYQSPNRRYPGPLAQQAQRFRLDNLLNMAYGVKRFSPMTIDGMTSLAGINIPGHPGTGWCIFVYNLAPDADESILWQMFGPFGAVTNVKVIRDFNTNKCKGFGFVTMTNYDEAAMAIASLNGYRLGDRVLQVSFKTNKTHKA
In short: as §1

Sequence	Kd (CMTR1)	Kd (CPSF1)	Kd (DAZAP1)	Kd (ELAVL2)
AAUAAA	209 nM	6.97 nM	113 nM	8.83 µM
UAUUUAU	591 nM	340 nM	286 nM	3.67 µM
